In US20110262474A1:

What was measured:
[1] = target: recombinant WT HIV-1 JRCSF gp120 full-length polypeptide (HIV-1 subtype B, strain JRCSF) (UniProt P20871); experiment: SPR (Biacore 2000), KA = ka/kd from a single-site fit; * best curve fit, dissociation slower than the limit of detection of the instrument
[2] = target: recombinant WT HIV-1 JRCSF gp120 core polypeptide (HIV-1 subtype B, strain JRCSF) (UniProt P20871); experiment: as above
[3] = target: recombinant WT HIV-1 JRCSF gp120 full-length polypeptide (HIV-1 subtype B, strain JRCSF) (UniProt P20871); experiment: SPR (Biacore 2000), KA = ka/kd from a single-site fit
[4] = target: chimeric gp120 core polypeptide variant L7-043CDC; experiment: as above
[5] = target: recombinant WT HIV-1 JRCSF gp120 core polypeptide (HIV-1 subtype B, strain JRCSF) (UniProt P20871); experiment: as above
[6] = target: chimeric gp120 core polypeptide variant L7-043; experiment: as above
[7] = target: HIV-1 VLGCG4 gp160 envelope protein on pseudovirus (HIV-1 subtype G, strain VLGCG4); experiment: cell-based or functional assay
[8] = target: HIV-1 93BR029 gp160 envelope protein on pseudovirus (HIV-1 subtype F, strain 93BR029); experiment: cell-based or functional assay
[9] = target: HIV-1 BaL gp160 envelope protein on pseudovirus (HIV-1 subtype B, strain BaL); experiment: cell-based or functional assay
[10] = target: HIV-1 92HT594 gp160 envelope protein on pseudovirus (HIV-1 subtype B, strain 92HT594); experiment: cell-based or functional assay
[11] = target: HIV-1 JRCSF gp160 envelope protein on pseudovirus (HIV-1 subtype B, strain JRCSF) (UniProt P20871); experiment: cell-based or functional assay
[12] = target: HIV-1 QZ4589 gp160 envelope protein on pseudovirus (HIV-1 subtype B, strain QZ4589); experiment: cell-based or functional assay
[13] = target: HIV-1 1196 gp160 envelope protein on pseudovirus (HIV-1 subtype B, strain 1196); experiment: cell-based or functional assay
[14] = target: HIV-1 93TH305 gp160 envelope protein on pseudovirus (HIV-1 subtype E, strain 93TH305); experiment: cell-based or functional assay
[15] = target: HIV-1 NL4-3 gp160 envelope protein on pseudovirus (HIV-1 subtype B, strain NL4-3); experiment: cell-based or functional assay
[16] = target: HIV-1 93MW960 gp160 envelope protein on pseudovirus (HIV-1 subtype C, strain 93MW960); experiment: cell-based or functional assay
[17] = target: HIV-1 93BR020 gp160 envelope protein on pseudovirus (HIV-1 subtype F, strain 93BR020); experiment: cell-based or functional assay
[18] = target: amphotropic MLV envelope protein on pseudovirus (amphotropic murine leukemia virus); experiment: cell-based or functional assay
[19] = target: HIV-1 92RW020 gp160 envelope protein on pseudovirus (HIV-1 subtype A, strain 92RW020); experiment: cell-based or functional assay
[20] = target: HIV-1 SF162 gp160 envelope protein on pseudovirus (HIV-1 subtype B, strain SF162); experiment: cell-based or functional assay
[21] = target: HIV-1 6535 gp160 envelope protein on pseudovirus (HIV-1 subtype B, strain 6535); experiment: cell-based or functional assay
[22] = target: HIV-1 QH0692 gp160 envelope protein on pseudovirus (HIV-1 subtype B, strain QH0692); experiment: cell-based or functional assay
[23] = target: chimeric gp120 core polypeptide variant L7-043; experiment: SPR (Biacore 2000), KA relative to the JR-CSF gp120 core row (= 1)
[24] = target: recombinant WT HIV-1 JRCSF gp120 full-length polypeptide (HIV-1 subtype B, strain JRCSF) (UniProt P20871); experiment: SPR (Biacore 2000), mAb captured on anti-human gamma chain antibody, gp120 injected
[25] = target: recombinant WT HIV-1 JRCSF gp120 core polypeptide (HIV-1 subtype B, strain JRCSF) (UniProt P20871); experiment: as above
[26] = target: chimeric gp120 core polypeptide variant L7-043CDC; experiment: SPR (Biacore 2000), mAb captured on anti-human gamma chain antibody, gp120 core injected

human monoclonal antibody IgG1b6
Ka [1]: 4.08e+11 M⁻¹ | Ka [2]: 6.32e+12 M⁻¹

human monoclonal antibody IgG1b12
Ka [3]: 3.62e+07 M⁻¹ | Ka [4]: 2.58e+08 M⁻¹ | Ka [5]: 3.43e+07 M⁻¹ | Ka [6]: 3.8e+08 M⁻¹ | IC50 neutralization titer of pseudovirus (luciferase entry assay) [7]: 0.04 µg/mL | IC50 neutralization titer of pseudovirus (luciferase entry assay) [8]: 1.67 µg/mL | IC50 neutralization titer of pseudovirus (luciferase entry assay) [9]: 0.01 µg/mL | IC50 neutralization titer of pseudovirus (luciferase entry assay) [10]: 0.02 µg/mL | IC50 neutralization titer of pseudovirus (luciferase entry assay) [11]: 0.06 µg/mL | IC50 neutralization titer of pseudovirus (luciferase entry assay) [12]: 0.03 µg/mL | IC50 neutralization titer of pseudovirus (luciferase entry assay) [13]: 0.48 µg/mL | IC50 neutralization titer of pseudovirus (luciferase entry assay) [14]: 0.71 µg/mL | IC50 neutralization titer of pseudovirus (luciferase entry assay) [15]: 0.01 µg/mL | IC50 neutralization titer of pseudovirus (luciferase entry assay) [16]: 0.06 µg/mL | IC50 neutralization titer of pseudovirus (luciferase entry assay) [17]: 2.08 µg/mL | IC50 neutralization titer of pseudovirus (luciferase entry assay) [18]: > 2.5 µg/mL | IC50 neutralization titer of pseudovirus (luciferase entry assay) [19]: 1.67 µg/mL | IC50 neutralization titer of pseudovirus (luciferase entry assay) [20]: 0.01 µg/mL | IC50 neutralization titer of pseudovirus (luciferase entry assay) [21]: 0.64 µg/mL | IC50 neutralization titer of pseudovirus (luciferase entry assay) [22]: 0.1 µg/mL | Fold Increase [23]: 11 | Ka [24]: > 1e+07 M⁻¹ | Ka [25]: > 1e+07 M⁻¹ | fold increase in b12 affinity against JRCSF gp120 core polypeptide [26]: > 7.5 fold
